B1: 4G8.3-GS-9E8.4E DVD-Ig (PR-1575832) (bispecific antibody, human IgG1, kappa, L234A L235A)
heavy: EVQLVQSGSELKKPGASVKVSCKASGYTFTNYGMYWVRQAPGQGLEWMGWINTETGKPTYADDFKGRFVFSLDTSVSTAYLQISSLKAEDTAVYYCARTNYYYRSYIFYFDYWGQGTMVTVSSGGGGSGGGGSEVTLRESGPALVKPTQTLTLTCTFSGFSLSTYGMGVGWIRQPPGKALEWLANIWWDDDKYYNPSLKNRLTISKDTSKNQVVLTMTNMDPVDTATYYCARIESIGTTYSFDYWGQGTMVTVSSASTKGPSVFPLAPSSKSTSGGTAALGCLVKDYFPEPVTVSWNSGALTSGVHTFPAVLQSSGLYSLSSVVTVPSSSLGTQTYICNVNHKPSNTKVDKKVEPKSCDKTHTCPPCPAPEAAGGPSVFLFPPKPKDTLMISRTPEVTCVVVDVSHEDPEVKFNWYVDGVEVHNAKTKPREEQYNSTYRVVSVLTVLHQDWLNGKEYKCKVSNKALPAPIEKTISKAKGQPREPQVYTLPPSREEMTKNQVSLTCLVKGFYPSDIAVEWESNGQPENNYKTTPPVLDSDGSFFLYSKLTVDKSRWQQGNVFSCSVMHEALHNAYTQKSLSLSPGK
light: DTVLTQSPATLSLSPGERATLSCRASESVSTHMHWYQQKPGQAPRLLIYGASNLESGVPARFSGSGSGTDFTLTISSLEPEDFAVYFCQQSWNDPFTFGQGTKLEIKRGGSGGGGSGEFVLTQSPGTLSLSPGERATLSCERSSGDIGESYVSWYQQKPGQAPRLVIYADDQRPSGIPDRFSGSGSGTDFTLTISRLEPEDFAVYYCQSYDINIDIVFGGGTKVEIKRTVAAPSVFIFPPSDEQLKSGTASVVCLLNNFYPREAKVQWKVDNALQSGNSQESVTEQDSKDSTYSLSSTLTLSKADYEKHKVYACEVTHQGLSSPVTKSFNRGEC
B2: 9E8.4-SS-4G8.3 DVD-Ig (PR-1563990) (bispecific antibody, human IgG1, kappa, L234A L235A)
heavy: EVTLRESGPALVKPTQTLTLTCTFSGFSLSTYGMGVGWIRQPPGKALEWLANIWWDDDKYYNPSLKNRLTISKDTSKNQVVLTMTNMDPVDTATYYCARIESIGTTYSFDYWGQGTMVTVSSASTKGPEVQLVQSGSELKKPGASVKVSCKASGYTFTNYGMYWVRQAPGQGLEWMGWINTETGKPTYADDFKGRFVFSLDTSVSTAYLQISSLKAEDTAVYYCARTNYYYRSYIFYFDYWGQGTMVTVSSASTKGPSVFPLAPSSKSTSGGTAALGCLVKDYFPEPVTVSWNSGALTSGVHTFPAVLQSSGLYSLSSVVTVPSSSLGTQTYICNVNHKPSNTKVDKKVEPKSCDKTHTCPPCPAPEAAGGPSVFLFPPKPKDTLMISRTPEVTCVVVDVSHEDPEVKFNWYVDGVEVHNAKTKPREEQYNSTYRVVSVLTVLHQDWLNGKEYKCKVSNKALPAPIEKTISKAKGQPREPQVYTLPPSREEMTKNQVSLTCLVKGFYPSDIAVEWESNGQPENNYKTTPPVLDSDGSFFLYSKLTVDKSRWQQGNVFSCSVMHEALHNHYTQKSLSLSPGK
light: EFVLTQSPGTLSLSPGERATLSCERSSGDIGDSYVSWYQQKPGQAPRLVIYADDQRPSGIPDRFSGSGSGTDFTLTISRLEPEDFAVYYCQSYDINIDIVFGGGTKVEIKGTVAAPDTVLTQSPATLSLSPGERATLSCRASESVSTHMHWYQQKPGQAPRLLIYGASNLESGVPARFSGSGSGTDFTLTISSLEPEDFAVYFCQQSWNDPFTFGQGTKLEIKRTVAAPSVFIFPPSDEQLKSGTASVVCLLNNFYPREAKVQWKVDNALQSGNSQESVTEQDSKDSTYSLSSTLTLSKADYEKHKVYACEVTHQGLSSPVTKSFNRGEC
B3: 9E8.4-LS-4G8.3 DVD-Ig (PR-1564009) (bispecific antibody, human IgG1, kappa, L234A L235A)
heavy: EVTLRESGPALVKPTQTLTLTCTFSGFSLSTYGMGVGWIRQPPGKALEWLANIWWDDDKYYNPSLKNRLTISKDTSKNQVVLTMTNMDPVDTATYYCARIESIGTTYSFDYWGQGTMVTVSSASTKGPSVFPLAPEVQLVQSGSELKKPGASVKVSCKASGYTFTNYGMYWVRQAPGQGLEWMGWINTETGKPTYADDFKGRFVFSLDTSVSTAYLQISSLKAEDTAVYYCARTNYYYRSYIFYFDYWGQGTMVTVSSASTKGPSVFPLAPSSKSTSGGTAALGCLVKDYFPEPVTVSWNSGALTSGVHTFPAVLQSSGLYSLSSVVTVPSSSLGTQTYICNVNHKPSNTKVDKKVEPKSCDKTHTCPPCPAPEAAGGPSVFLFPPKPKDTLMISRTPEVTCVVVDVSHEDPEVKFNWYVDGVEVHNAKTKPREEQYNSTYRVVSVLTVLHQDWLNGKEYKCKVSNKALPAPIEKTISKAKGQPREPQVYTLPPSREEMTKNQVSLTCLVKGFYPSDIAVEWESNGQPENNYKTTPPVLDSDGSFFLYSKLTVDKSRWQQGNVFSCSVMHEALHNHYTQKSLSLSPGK
light: EFVLTQSPGTLSLSPGERATLSCERSSGDIGDSYVSWYQQKPGQAPRLVIYADDQRPSGIPDRFSGSGSGTDFTLTISRLEPEDFAVYYCQSYDINIDIVFGGGTKVEIKGTVAAPDTVLTQSPATLSLSPGERATLSCRASESVSTHMHWYQQKPGQAPRLLIYGASNLESGVPARFSGSGSGTDFTLTISSLEPEDFAVYFCQQSWNDPFTFGQGTKLEIKRTVAAPSVFIFPPSDEQLKSGTASVVCLLNNFYPREAKVQWKVDNALQSGNSQESVTEQDSKDSTYSLSSTLTLSKADYEKHKVYACEVTHQGLSSPVTKSFNRGEC
B4: CODV009 cross-over DVD-Ig (PR-1571821) (bispecific antibody, human IgG1, kappa, L234A L235A)
heavy: EVQLVQSGSELKKPGASVKVSCKASGYTFTNYGMYWVRQAPGQGLEWMGWINTETGKPTYADDFKGRFVFSLDTSVSTAYLQISSLKAEDTAVYYCARTNYYYRSYIFYFDYWGQGTMVTVSSGEVTLRESGPALVKPTQTLTLTCTFSGFSLSTYGMGVGWIRQPPGKALEWLANIWWDDDKYYNPSLKNRLTISKDTSKNQVVLTMTNMDPVDTATYYCARIESIGTTYSFDYWGQGTMVTVSSGGASTKGPSVFPLAPSSKSTSGGTAALGCLVKDYFPEPVTVSWNSGALTSGVHTFPAVLQSSGLYSLSSVVTVPSSSLGTQTYICNVNHKPSNTKVDKKVEPKSCDKTHTCPPCPAPEAAGGPSVFLFPPKPKDTLMISRTPEVTCVVVDVSHEDPEVKFNWYVDGVEVHNAKTKPREEQYNSTYRVVSVLTVLHQDWLNGKEYKCKVSNKALPAPIEKTISKAKGQPREPQVYTLPPSREEMTKNQVSLTCLVKGFYPSDIAVEWESNGQPENNYKTTPPVLDSDGSFFLYSKLTVDKSRWQQGNVFSCSVMHEALHNAYTQKSLSLSPGK
light: EFVLTQSPGTLSLSPGERATLSCERSSGDIGDSYVSWYQQKPGQAPRLVIYADDQRPSGIPDRFSGSGSGTDFTLTISRLEPEDFAVYYCQSYDINIDIVFGGGTKVEIKGGGSGGGDTVLTQSPATLSLSPGERATLSCRASESVSTHMHWYQQKPGQAPRLLIYGASNLESGVPARFSGSGSGTDFTLTISSLEPEDFAVYFCQQSWNDPFTFGQGTKLEIKGGGSGRTVAAPSVFIFPPSDEQLKSGTASVVCLLNNFYPREAKVQWKVDNALQSGNSQESVTEQDSKDSTYSLSSTLTLSKADYEKHKVYACEVTHQGLSSPVTKSFNRGEC
B5: 4G8.3-SL-9E8.4E DVD-Ig (PR-1575834) (bispecific antibody, human IgG1, kappa, L234A L235A)
heavy: EVQLVQSGSELKKPGASVKVSCKASGYTFTNYGMYWVRQAPGQGLEWMGWINTETGKPTYADDFKGRFVFSLDTSVSTAYLQISSLKAEDTAVYYCARTNYYYRSYIFYFDYWGQGTMVTVSSASTKGPEVTLRESGPALVKPTQTLTLTCTFSGFSLSTYGMGVGWIRQPPGKALEWLANIWWDDDKYYNPSLKNRLTISKDTSKNQVVLTMTNMDPVDTATYYCARIESIGTTYSFDYWGQGTMVTVSSASTKGPSVFPLAPSSKSTSGGTAALGCLVKDYFPEPVTVSWNSGALTSGVHTFPAVLQSSGLYSLSSVVTVPSSSLGTQTYICNVNHKPSNTKVDKKVEPKSCDKTHTCPPCPAPEAAGGPSVFLFPPKPKDTLMISRTPEVTCVVVDVSHEDPEVKFNWYVDGVEVHNAKTKPREEQYNSTYRVVSVLTVLHQDWLNGKEYKCKVSNKALPAPIEKTISKAKGQPREPQVYTLPPSREEMTKNQVSLTCLVKGFYPSDIAVEWESNGQPENNYKTTPPVLDSDGSFFLYSKLTVDKSRWQQGNVFSCSVMHEALHNAYTQKSLSLSPGK
light: DTVLTQSPATLSLSPGERATLSCRASESVSTHMHWYQQKPGQAPRLLIYGASNLESGVPARFSGSGSGTDFTLTISSLEPEDFAVYFCQQSWNDPFTFGQGTKLEIKRTVAAPSVFIFPPEFVLTQSPGTLSLSPGERATLSCERSSGDIGESYVSWYQQKPGQAPRLVIYADDQRPSGIPDRFSGSGSGTDFTLTISRLEPEDFAVYYCQSYDINIDIVFGGGTKVEIKRTVAAPSVFIFPPSDEQLKSGTASVVCLLNNFYPREAKVQWKVDNALQSGNSQESVTEQDSKDSTYSLSSTLTLSKADYEKHKVYACEVTHQGLSSPVTKSFNRGEC
B6: 4G8.3-SS-9E8.4 DVD-Ig (PR-1564011) (bispecific antibody, human IgG1, kappa, L234A L235A)
heavy: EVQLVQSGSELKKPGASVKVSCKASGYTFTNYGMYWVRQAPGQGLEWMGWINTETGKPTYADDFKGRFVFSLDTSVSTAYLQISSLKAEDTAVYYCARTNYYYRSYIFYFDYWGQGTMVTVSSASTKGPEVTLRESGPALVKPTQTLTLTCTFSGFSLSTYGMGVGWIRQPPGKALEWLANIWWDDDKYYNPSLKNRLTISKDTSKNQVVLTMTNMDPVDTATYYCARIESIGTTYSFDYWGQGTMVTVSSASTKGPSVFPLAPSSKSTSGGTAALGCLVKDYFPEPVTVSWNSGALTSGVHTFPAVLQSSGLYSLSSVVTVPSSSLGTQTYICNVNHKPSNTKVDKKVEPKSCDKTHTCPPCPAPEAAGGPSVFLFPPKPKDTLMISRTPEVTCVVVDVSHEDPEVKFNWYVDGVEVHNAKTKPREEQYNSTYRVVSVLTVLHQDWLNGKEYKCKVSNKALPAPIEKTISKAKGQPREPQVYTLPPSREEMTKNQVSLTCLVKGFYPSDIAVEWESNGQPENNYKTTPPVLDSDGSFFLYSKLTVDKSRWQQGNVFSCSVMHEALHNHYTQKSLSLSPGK
light: DTVLTQSPATLSLSPGERATLSCRASESVSTHMHWYQQKPGQAPRLLIYGASNLESGVPARFSGSGSGTDFTLTISSLEPEDFAVYFCQQSWNDPFTFGQGTKLEIKRTVAAPEFVLTQSPGTLSLSPGERATLSCERSSGDIGDSYVSWYQQKPGQAPRLVIYADDQRPSGIPDRFSGSGSGTDFTLTISRLEPEDFAVYYCQSYDINIDIVFGGGTKVEIKGTVAAPSVFIFPPSDEQLKSGTASVVCLLNNFYPREAKVQWKVDNALQSGNSQESVTEQDSKDSTYSLSSTLTLSKADYEKHKVYACEVTHQGLSSPVTKSFNRGEC
B7: 9E8.4-SL-4G8.3 DVD-Ig (PR-1563998) (bispecific antibody, human IgG1, kappa, L234A L235A)
heavy: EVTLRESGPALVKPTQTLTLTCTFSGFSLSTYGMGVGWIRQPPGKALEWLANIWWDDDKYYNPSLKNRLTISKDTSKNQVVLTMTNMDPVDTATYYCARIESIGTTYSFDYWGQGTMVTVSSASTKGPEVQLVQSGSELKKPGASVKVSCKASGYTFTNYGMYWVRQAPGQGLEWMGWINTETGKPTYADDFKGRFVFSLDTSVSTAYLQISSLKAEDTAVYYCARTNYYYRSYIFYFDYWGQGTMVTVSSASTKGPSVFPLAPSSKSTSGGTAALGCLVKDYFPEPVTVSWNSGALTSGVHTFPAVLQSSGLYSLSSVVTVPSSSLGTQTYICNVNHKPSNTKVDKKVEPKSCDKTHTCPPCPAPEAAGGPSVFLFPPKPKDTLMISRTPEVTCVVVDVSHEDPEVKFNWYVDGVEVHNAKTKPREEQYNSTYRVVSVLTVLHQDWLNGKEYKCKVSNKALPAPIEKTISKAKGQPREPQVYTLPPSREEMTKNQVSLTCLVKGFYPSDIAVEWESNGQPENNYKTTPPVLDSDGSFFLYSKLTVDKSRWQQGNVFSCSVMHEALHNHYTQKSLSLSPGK
light: EFVLTQSPGTLSLSPGERATLSCERSSGDIGDSYVSWYQQKPGQAPRLVIYADDQRPSGIPDRFSGSGSGTDFTLTISRLEPEDFAVYYCQSYDINIDIVFGGGTKVEIKGTVAAPSVFIFPPDTVLTQSPATLSLSPGERATLSCRASESVSTHMHWYQQKPGQAPRLLIYGASNLESGVPARFSGSGSGTDFTLTISSLEPEDFAVYFCQQSWNDPFTFGQGTKLEIKRTVAAPSVFIFPPSDEQLKSGTASVVCLLNNFYPREAKVQWKVDNALQSGNSQESVTEQDSKDSTYSLSSTLTLSKADYEKHKVYACEVTHQGLSSPVTKSFNRGEC
B8: hBDI-5H1.10 (antibody, V domains shown)
VH: EVTLRESGPALVKPTQTLTLTCTFSGFSLSTFGMGVGWIRQPPGKALEWLANIWWDDDKYYNPSLKNRLTISKDTSKNQAVLTITNMDPVDTATYYCARISTGISSYYVMDAWGQGTTVTVSS
VL: DFQLTQSPSSLSASVGDRVTITCERSSGDIGDTYVSWYQQKPGKAPKNVIYGNDQRPSGVPSRFSGSGSGNSATLTISSLQPEDFATYFCQSYDSDIDIVFGQGTKVEIK
notes: Humanized IgG
B9: hBDI-5H1.12 (antibody, V domains shown)
VH: EVQLVESGGGLVQPGGSLRLSCAFSGFSLSTFGMGVGWIRQAPGKGLEWLANIWWDDDKYYNPSLKNRLTISKDTSKNQAYLQINSLRAEDTAVYYCARISTGISSYYVMDAWGQGTLVTVSS
VL: DFQLTQSPSSLSASVGDRVTITCERSSGDIGDTYVSWYQQKPGKAPKNVIYGNDQRPSGVPSRFSGSGSGNSATLTISSLQPEDFATYFCQSYDSDIDIVFGQGTKVEIK
notes: Humanized IgG
B10: hBDI-5H1.11 (antibody, V domains shown)
VH: EVQLVESGGGLVQPGGSLRLSCAFSGFSLSTFGMGVGWIRQAPGKGLEWLANIWWDDDKYYNPSLKNRLTISKDTSKNQAYLQINSLRAEDTAVYYCARISTGISSYYVMDAWGQGTLVTVSS
VL: DFVLTQSPDSLAVSLGERATINCERSSGDIGDTYVSWYQQKPGQPPKNVIYGNDQRPSGVPDRFSGSGSGNSATLTISSLQAEDVAVYFCQSYDSDIDIVFGGGTKVEIK
notes: Humanized IgG

What follows are binders tested against recombinant human PDGF-BB (human, UniProt P01127 82-190) (assay: cell-based or functional assay).
Sequence of recombinant human PDGF-BB (P01127 82-190 limits assumed): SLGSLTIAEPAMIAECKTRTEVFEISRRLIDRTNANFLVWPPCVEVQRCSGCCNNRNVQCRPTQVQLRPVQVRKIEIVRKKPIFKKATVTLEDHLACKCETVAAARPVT
In the case of B1, the “NIH-3T3 hPDGF-BB Potency IC50” value is reported as greater than 5 nM.
With B2 the “NIH-3T3 hPDGF-BB Potency IC50” value was 0.094 nM.
In the case of B3, the “NIH-3T3 hPDGF-BB Potency IC50” value is reported as 0.104 nM.
For B4, the “NIH-3T3 hPDGF-BB Potency IC50” value was greater than 5 nM.
B5 was tested, and the “NIH-3T3 hPDGF-BB Potency IC50” value was 0.572 nM.
For B6, the “NIH-3T3 hPDGF-BB Potency IC50” value was 5.51 nM.
With B7 the “NIH-3T3 hPDGF-BB Potency IC50” value was 0.091 nM.

These binders were tested against T1, Human PDGF-BB (human, UniProt P01127 82-190) (assay: SPR (Biacore), antibody captured via anti-human Fc, antigen in solution).
T1 construct: Recombinant human PDGF-BB, a homodimer of two B chains; also called hPDGF-BB; huPDGF-BB
T1 sequence (P01127 82-190 limits assumed): as above
Protocol: For example, approximately 9000 RU of goat anti-human Fc specific polyclonal antibody (Thermo Fisher Scientific Inc., Rockford, Ill.) diluted in 10 mM sodium acetate (pH 4.5) is directly immobilized across a CM5 research grade biosensor chip using a standard amine coupling kit according to manufacturer's instructions and procedures at 25 μg/ml. Unreacted moieties on the biosensor surface were blocked with ethanolamine. For kinetic analysis, rate equations derived from the 1:1 Langmuir binding model were fitted simultaneously to multiple antigen injections (using global fit analysis) with the use of Scrubber 2 (BioLogic Software), Biacore Biaevaluation 4.0.1 software or Biacore T100 Evaluation software. Purified antibodies or DVD-Ig molecules were diluted in running buffer for capture across goat anti-human Fc reaction surfaces. Antibodies or DVD-Ig molecules to be captured as a ligand (1 μg/ml) were injected over reaction matrices at a flow rate of 10 μl/minute. During the assay, all measurements were referenced against the capture surface alone (i.e., with no captured antibody or DVD-Ig molecule). […] The equilibrium dissociation constant KD (M) of the reaction between antibodies and the target antigen was then calculated from the kinetic rate constants by the following formula: KD=Koff/Kₒₙ. Binding was recorded as a function of time and kinetic rate constants were calculated.
With B8 the Kd was no more than 0.23 nM and the kon was no less than 1e+07 M⁻¹ s⁻¹.
B9 showed a Kd of no more than 0.23 nM and a kon of no less than 1e+07 M⁻¹ s⁻¹.
B10 was tested, and the Kd was no more than 0.37 nM and the kon was no less than 1e+07 M⁻¹ s⁻¹.

— patent publication US20170015742A1 (published 2017)
